Experimental data as given in patent US20250154240A1 (CHIOME BIOSCIENCE, published 2025).

How the values were obtained:
human CXCL1 protein [1] = biological target: T1, human CXCL1 protein (human, UniProt P09341 35-107); assay: antigen-immobilized ELISA, HuCXCL1 on the plate, absorbance (upper right panel; chimeric label printed mh4A-7H10, taken as the 4A-2F7 panel)
T1 construct: also called HuCXCL1
T1 sequence: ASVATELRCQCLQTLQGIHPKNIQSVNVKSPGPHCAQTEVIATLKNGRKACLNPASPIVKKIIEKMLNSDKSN

human CXCL1 protein [2] = biological target: T1, human CXCL1 protein; assay: antigen-immobilized ELISA, HuCXCL1 on the plate, absorbance (lower left panel)
human CXCL1 protein [3] = biological target: T1, human CXCL1 protein; assay: cell-based or functional assay
human CXCL1 protein [4] = biological target: T1, human CXCL1 protein; assay: antigen-immobilized ELISA, HuCXCL1 on the plate, absorbance (lower right panel)
human CXCL1 protein [5] = biological target: T1, human CXCL1 protein; assay: antigen-immobilized ELISA, HuCXCL1 on the plate, absorbance (upper right panel; label printed mh4A-7H10, taken as the 4A-2F7 panel)

B1: Hu4A-2F7 VH1/VL1 (antibody, V domains shown)
VH: QVTLKESGPALVKPTQTLTLTCTFSGFSLSTSGMGVDWIRQPPGKALEWLAHIWWDDDKYYNPSLKSQLTISKDTSKNQVVLTMTNMDPVDTATYYCARSYGYDMDYYAMDYWGQGTTVTVSS
VL: DIQMTQSPSSLSASVGDRVTITCRASQEISGYLSWLQQKPGKAPKRLIYAASTLSSGVPSRFSGSGSGTDFTLTISSLQPEDFATYYCLQYASYPPWTFGGGTKVEIK
Human CXCL1 protein [1]
  EC50 (read off the curve): ~0.02 µg/mL

B2: Hu4A-2F7 VH2/VL1 (antibody, V domains shown)
VH: QVTLKESGPALVKPTQTLTLTCTFSGFSLSTSGMGVDWIRQPPGKGLEWLAHIWWDDDKYYNPSLKSQLTISKDTSKNQVVLTMTNMDPVDTATYYCARSYGYDMDYYAMDYWGQGTTVTVSS
VL: DIQMTQSPSSLSASVGDRVTITCRASQEISGYLSWLQQKPGKAPKRLIYAASTLSSGVPSRFSGSGSGTDFTLTISSLQPEDFATYYCLQYASYPPWTFGGGTKVEIK
notes: Humanized antibody
Human CXCL1 protein [1]
  EC50 (read off the curve): ~0.02 µg/mL

B3: Hu4A-2F7 VH2/VL2 (antibody, V domains shown)
VH: QVTLKESGPALVKPTQTLTLTCTFSGFSLSTSGMGVDWIRQPPGKGLEWLAHIWWDDDKYYNPSLKSQLTISKDTSKNQVVLTMTNMDPVDTATYYCARSYGYDMDYYAMDYWGQGTTVTVSS
VL: DIQMTQSPSSLSASVGDRVTITCRASQEISGYLSWLQQKPGKAPKRLIYAASTLSSGVPSRFSGSGSGTDYTLTISSLQPEDFATYYCLQYASYPPWTFGGGTKVEIK
notes: Humanized antibody
Human CXCL1 protein [1]
  EC50 (read off the curve): ~0.02 µg/mL

B4: Hu4A-2F7 VH1/VL2 (antibody, V domains shown)
VH: QVTLKESGPALVKPTQTLTLTCTFSGFSLSTSGMGVDWIRQPPGKALEWLAHIWWDDDKYYNPSLKSQLTISKDTSKNQVVLTMTNMDPVDTATYYCARSYGYDMDYYAMDYWGQGTTVTVSS
VL: DIQMTQSPSSLSASVGDRVTITCRASQEISGYLSWLQQKPGKAPKRLIYAASTLSSGVPSRFSGSGSGTDYTLTISSLQPEDFATYYCLQYASYPPWTFGGGTKVEIK
notes: Humanized antibody
Human CXCL1 protein [1]
  EC50 (read off the curve): ~0.02 µg/mL

B5: Hu5A-5E11 VH2/VL2 (antibody, V domains shown)
VH: QVQLVQSGAEVKKPGSSVKVSCKASGYAFSDYWMNWVRQAPGQGLEWIGQIYPGSGDTNYNAKFKGKGTLTADKSTSTAYMELSSLRSEDTAVYYCARERDYDVAMDYWGQGTTVTVSS
VL: DIQMTQSPSSLSASVGDRVTITCKASQDINKYIAWFQQKPGKAPKLVIHYTSILQPGVPSRFSGVGSGTDYTFTISSLQPEDIATYYCLQYDNLPWTFGGGTKVEIK
notes: Humanized antibody
Human CXCL1 protein [2]
  EC50 (read off the curve): ~0.02 µg/mL

B6: 5A-5E11 (antibody, V domains shown)
VH: QVQLQQSGAELVRPGSSVKISCKASGYAFSDYWMNWVKQRPGQGLEWIGQIYPGDGDTNYNGKFKGKGTLTADKSSSTAYMQLNSLTSEDSAVYFCARERDYDVAMDYWGQGTSVTVSS
VL: DIQMTQSPSSLSASLGGKVTITCKASQDINKYIAWFQHKPGKGPRLVIHYTSILQPGIPSRFSGVGSGRDYSFSIRNLEPEDIATYYCLQYDNLPWTFGGGTKLEIK
Human CXCL1 protein [3]
  HuCXCL1 neutralizing activity EC50 (nM), Ca^2+ Flux assay: 3.96 nM

B7: 028-8-12 (antibody, V domains shown)
VH: EVQLLESGGGLVQPGGSLRLSCAASGFTFSELSMSWVRQAPGKGLEWVSAISGSGGSTYYADSVKGRFTISRDNSKNTLYLQMNSLRAEDTAVYYCAREGGRLEPYYYYYAMDVWGQGTPVTVSS
VL: DIQMTQSPSSLSASVGDRVTITCRASQSISDNLHWYQQKPGKAPKLLIYDASNLESGVPSRFSGSGSGTDFTLTINSLQPEDFATYYCQQYYSTPLTFGQGTKLEIK
notes: Unmodified human antibody obtained by the human ADLib technique; also called ADLib#028-08-12; ADLib #028-8-12
Human CXCL1 protein [3]
  HuCXCL1 neutralizing activity EC50 (nM), Ca^2+ Flux assay: 5.73 nM
Human CXCL1 protein [4]
  EC50 (read off the curve): ~0.04 µg/mL

B8: ADLib#028-8-12_VH1/VL1 (antibody, V domains shown)
VH: EVQLLESGGGLVQPGGSLRLSCAASGFTFSELSMSWVRQAPGKGLEWVSAISGSGGSTYYASSVKGRFTISRDNSKNTLYLQMNSLRAEDTAVYYCAREGGRLEPYYYYYAMDVWGQGTPVTVSS
VL: DIQMTQSPSSLSASVGDRVTITCRASQSISDNLHWYQQKPGKAPKLLIYDASNLESGVPSRFSGSGSGTDFTLTISSLQPEDFATYYCQQYYSTPLTFGQGTKLEIK
notes: Amino acid-modified human antibody; also called modified human antibody 028-8-12
Human CXCL1 protein [4]
  EC50 (read off the curve): ~0.04 µg/mL

B9: 4A-2F7 (antibody, V domains shown)
VH: QVTLKESGPGILKPSQTLSLTCSFSGFSLSTSGMGVDWIRQPSGKGLEWLAHIWWDDDKYYNPSLKSQLTISKDTSRNQVFLKITSVDTADTATYYCARSYGYDMDYYAMDYWGQGTSVTVSS
VL: DIQMTQSPSSLSASLGERVSLTCRASQEISGYLSWLQQKPDGTIKRLIYAASTLDSGVPKRFSGSRSGSDYSLTISSLESEDFADYYCLQYASYPPWTFGGGTKLEIK
Human CXCL1 protein [3]
  HuCXCL1 neutralizing activity EC50 (nM), Ca^2+ Flux assay: 4.8 nM

B10: mh4A-2F7_VH/VL1 (antibody, V domains shown)
VH: QVTLKESGPGILKPSQTLSLTCSFSGFSLSTSGMGVDWIRQPSGKGLEWLAHIWWDDDKYYNPSLKSQLTISKDTSRNQVFLKITSVDTADTATYYCARSYGYDMDYYAMDYWGQGTSVTVSS
VL: DIQMTQSPSSLSASLGERVSLTCRASQEISGYLSWLQQKPDGTIKRLIYAASTLSSGVPKRFSGSRSGSDYSLTISSLESEDFADYYCLQYASYPPWTFGGGTKLEIK
Human CXCL1 protein [5]
  EC50 (read off the curve): ~0.02 µg/mL

B11: 1A-7H10 (antibody, V domains shown)
VH: QVQLKESGPVLVAPSQSLSITCSVSGFSSTTYGVHWVRQPPGQGLEWLGVIWAGGSTNYNSALMSRLSISKDNSKSQVFLKMNSLQTDDTAMYYCATQYHYPFAYWGQGTLVTVSA
VL: NIVMTQSPKSMSMSVGERVTLSCKASENVGIYVSWYQQKPEQSPKLMIYGASNRNTGVPDRFTGSGSATDFTLTISSVQAEDLADYYCGQSYSYPLTFGAGTKLELK
Human CXCL1 protein [3]
  HuCXCL1 neutralizing activity EC50 (nM), Ca^2+ Flux assay: 6.24 nM
